{"source": "IntAct's records for PubMed 10722738", "parents": {"B1": {"name": "Early protein (Human adenovirus A serotype 12 (HAdV-12)), P03259-2 (parent)", "chain": "MRTEMTPLVLSYQEADDILEHLVDNFFNEVPSDDDLYVPSLYELYDLDVESAGEDNNEQAVNEFFPESLILAASEGLFLPEPPVLSPVCEPIGGECMPQLHPEDMDLLCYEMGFPCSDSEDEQDENGMAHVSASAAAAAADREREEFQLDHPELPGHNCPVSDNEPEPNSTLDGDERPSPPKLGSAVPEGVIKPVPQRVTGRRRCAVESILDLIQEEEREQTVPVDLSVKRPRCN"}}, "data": [{"variants_of": "B1", "conditions": "with cbp_human CREBBP", "values": [{"variant": "D16A", "effect of a mutation on the interaction": "disrupting interaction"}, {"variant": "I18P", "effect of a mutation on the interaction": "decreasing interaction"}, {"variant": "L19S", "effect of a mutation on the interaction": "decreasing interaction"}]}]}
